Experimental data reported in the nanobody polyreactivity screen of Harvey et al. (2022).

assay: yeast display, Sf9 membrane polyspecificity reagent, FACS + sequencing; frameworks hold sequencing errors
Method in brief: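 In a synthetic yeast display library (Saccharomyces cerevisiae BJ5465), nanobody expression was induced with galactose for 36–48 hours. FACS gates were set low and high (top ~1%) using anti-HA fluorescence for expression and streptavidin fluorescence for binding of the Sf9 membrane reagent. Each polyreactivity label is drawn from the gate of origin.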

Question: Which “polyreactivity (PSR sort gate)” value does the source give for “QVQLVESGGGLVQAGGRLRLSCAASGFTFLGSAMGWYRQAPGKERELVAAISSSGGSTYYADSVKGRFTISRDNAKNTVYLQMNSLKPEDTAVYYCAAYVAVPPSDYDYWGQGTQVTVSS” here?
Answer: high polyreactivity

Question: Which “polyreactivity (PSR sort gate)” value does the source give for “QVQLVESGGGLVQAGGSLRLSCAASGLTFSAYAMGWYRQAPGKERELVAAITTGGGRTYYADSVKGRFTISRDNAKNTVYLQMNSLKPEDTAVYYCNTLRAYWTYHFYGAVRDGYDYWGQGTKVTVSS” here?
Answer: low polyreactivity

Question: For “QVQLVESVGCLVQAGGSLRLSCDASGIIFNQNTMGWYRPAPGKERQLVAAITSSVGSTYYADSVKGRFTISRDNAKNTVYLQMNSLKPEVTAVYYCAATGWVYRRSRDYWGQGTQVTVSS”, which “polyreactivity (PSR sort gate)” value is on record?
Answer: low polyreactivity

Question: For “QVQLVESGGGLVQAGGSLRLSCAASGRIFPFNAMGWYRQAPGKEREFVAAIRLSGTRTYYADSVKGRFTISRDNAKNTVYLQMNSLKPEDTAVYYCAAKYSGHYYNYDYWGQGTQVSVSS”, which “polyreactivity (PSR sort gate)” value is on record?
Answer: high polyreactivity

Question: For “QVQLVESGGGLVQAGGRLRLSCASTGLTLHGNAMGWYRQAPGKERELVATISSSGGSTFYADSVKGRFTISRDNAKNTDYLQMNSLKPEDTAVYYCNADAPYSDDYYVRFDYWGQGTQVTVSS”, which “polyreactivity (PSR sort gate)” value is on record?
Answer: low polyreactivity

Question: Which “polyreactivity (PSR sort gate)” value does the source give for “QDQLVESGGGLVQAGGSLRLSCAASALTFVRYAMGWYRQAPGKERELVAAISSGGSTNYADSVKGSFTISRDNAKNTVYLQMNSLKPEDSAVYYCAAVRYRYPHTMYYWGLGTQVTVSS” here?
Answer: high polyreactivity

Question: For “QVQLVESGGGLVQAGGSLRLSCAASGFTFRTNTMGWYRQAPGKERELVAAITYRGGRTYADSVKGRFTISRDNAKNTVYLQMNSLKPEDTAVYYCAARHYRGTAVDYWGQGTQVTVSS”, which “polyreactivity (PSR sort gate)” value is on record?
Answer: high polyreactivity

Question: For “QVHLVESGGGLVQAGVSLRLSCAASGLTFGPYAMGWYRQAPGKERELVAAITSGGNTNYADSVKGRFTISRDNAKNTVYLQMNSLKPEDTAVYYCATSYYLAYRSITPYDYWGQGTQVTVSS”, which “polyreactivity (PSR sort gate)” value is on record?
Answer: low polyreactivity

Question: With “QVQLVESGGGLVQAGGSLRLSCAASGSIFSGWYTMGWYRQAPWKERELVASISISTTDTYYADSVKGRFTISRDNAKNTVYVQMNSLKPEDTAVYYCAASGWDHVIVEYDYWGQGTQVTVSS” as the sequence, how does the “polyreactivity (PSR sort gate)” value read?
Answer: low polyreactivity

Question: With “QDQLVESGGGLVQAGGSLRLSCAASGFMFSYYAMGWYRQAPGKARELVAAMTSNGGITYYADSVKGRITISRDKAKNTVYLQMNSLKPEDTAVYYCNAYYTSTSYDYWGQGTQVTVSS” as the sequence, how does the “polyreactivity (PSR sort gate)” value read?
Answer: high polyreactivity

Question: For “QVQLVESGGGLVQAGGSLSLSCAASGRIYYYAMGWYRQAPGKERELVAAITGRGGSTYYADSVKGRFTISRDNAKNRVYLQMNSLKPEDTAVYYCARAGCPRHDWGQGTQVTVSS”, which “polyreactivity (PSR sort gate)” value is on record?
Answer: high polyreactivity

Question: With “QVQLVESGGGLVLAGGSLRLSCAASGSTFGGYAMGWYRQATGKERELVAAISGSGVRTYYADSVKGRFTISRDNAKNTVYLQMNSRKPEDTAVYYCAKRVRYPGDRYYYWGQGTQVTVSS” as the sequence, how does the “polyreactivity (PSR sort gate)” value read?
Answer: high polyreactivity

Question: For “QVQLVESGGGLVQAGGSLRLSCAASGFIFVINAMGWYRQAPGKERELVAGISSGGRTNYADSVKGRFTISRDNAKNTVYLEMKSLKPEDTAVYYCAAAPTYKWRRKNYDYWGQGTQVTVSS”, which “polyreactivity (PSR sort gate)” value is on record?
Answer: high polyreactivity

Question: With “HVQLVESVGGLVQAGGSLRLSCAASGRILGDNVMGWYRQAPGKERELVAAISSGSGSTYYADSVKGRFTISRDNAKNTVYLQMNSLKPEDTAVYYCAAGPYIYPRYDYWGQGTQVTVSS” as the sequence, how does the “polyreactivity (PSR sort gate)” value read?
Answer: low polyreactivity

Question: With “QVQLVESGGGLLQAGGSLRLSCAASGSIFYGYAMGWYRQAPGKERELVAAITRGGGTYYADSVKGRFTNSRDNAKITVYLQMNSLKPEDTAVYYCALSFYRRYTPYDYWGQGTQLTVSS” as the sequence, how does the “polyreactivity (PSR sort gate)” value read?
Answer: high polyreactivity

Question: With “QVQLVESGGGLVQAGGSLRLSCAASGSTFKPNAMGWYRQAPGKERELVAAITSGSTYYADSVKGRFTISRDNAKNTVYLQMNSLKPEDTAVYYCAVVTGSFRTRYTYYYWGQGTQVTVSS” as the sequence, how does the “polyreactivity (PSR sort gate)” value read?
Answer: high polyreactivity

Question: Which “polyreactivity (PSR sort gate)” value does the source give for “QVQLVESGGGLVQAGGSLRLSCAASVSTFVLYAMGWYRQAPGKERELVAVISWSGGSTYYADSVKGRFTISRDNAKNTVYLQMNSLKPEDTAVYYCAADSTWEGGYKYEYWGQGTQVTVSS” here?
Answer: low polyreactivity

Question: For “QVQLVESGGGLVQAGGSLRLSCAASGFIFRYYAMGWYRQAPGKERELVAAISYSGGYTYYADSVKGRFTISRDNAKNTVYLQMNSLKPEDTAVYYCAAVLRTRDHPQPNYEYWGQGTQVTVSS”, which “polyreactivity (PSR sort gate)” value is on record?
Answer: high polyreactivity

Question: For “QVQLVESVGGLVQAGGSLRLSCAASGRPFKKYAMGCYRQAPGKERALVAAITGSGGSTYYADAVKGRFTSSRDNAKKTVYLQMNSLKPEDTAVYYCAAYAYGVWHSHDGGNYWGQGTQVTVSS”, which “polyreactivity (PSR sort gate)” value is on record?
Answer: low polyreactivity

Question: For “QVQLVESGGGLVQAGGSLRLSCAASGSTFTDYDMGWYRQAPGKERELVAAITSGGSTNYADSVKGRFTISRDNAKNTVYLQMNSLKPEDTAVYYCKVRPYGFDSEFDYWGQGTQVTVSS”, which “polyreactivity (PSR sort gate)” value is on record?
Answer: low polyreactivity

Question: With “QVHLVESGGVLVQAGGSLRLSCAASGSIFAKYAMGWYRQAPGKERELVAAISRSSVRTRYADSVKGRFTISRDNAKNTVYLQMNSLKPADTAVYYCNAYYRSYAYSHLDYWGQGTQVTVSS” as the sequence, how does the “polyreactivity (PSR sort gate)” value read?
Answer: high polyreactivity

Question: For “QVQLVESGGGLVQAGGSLRLSCAASGSTFKIYAMGWYRQAPGKERELVARITGRGGSTYYADSVKGRFTISRDNAKNTVYLQMNSLKPEDTAVYYCAARVYTYYYDLHKRYYWGQGTQVTVSS”, which “polyreactivity (PSR sort gate)” value is on record?
Answer: high polyreactivity

Question: With “QVQLVESGGGLVQAGGSLRLSCAASISSINAMGWYRQAPGKERELVAAIRWSGSSTYYADSVKGRFTISRDNAKNTVYLQMNSLKPEDTAVYYCAADTTTGDRGFDYWGQGTQVTVSS” as the sequence, how does the “polyreactivity (PSR sort gate)” value read?
Answer: high polyreactivity

Question: For “QVQLVESGGGLVQAGGSLRLSCAASGRIFHYNAMGWYRQAPGKERELVAAISTGGSTNYADSVKGRFTISRDNAKNTVYLQMNSLKPEDTAVYYCAADHPVTYPTTKFDYWGQGTQVTVSS”, which “polyreactivity (PSR sort gate)” value is on record?
Answer: low polyreactivity

Question: For “QVQLVESGGGLVQAGGSLRLSCAASGFIFTGYAMGWYRQAPGKERELVAAISSSGGRTYYADSVKGRFTISRDNAKNTVYLQMNSLKPEDTAVYYCAAYYITFIGRGYGYWGQGTQVTVSS”, which “polyreactivity (PSR sort gate)” value is on record?
Answer: high polyreactivity

Question: With “QVQLVQSGGGLVQAGGSLRLSCAASGSIIGTYAMGCYRQAPGKERELVADINSGGSTYYADSVKGRFTISRDNAKNTVYLQMNSLKPDDTAVYYCAATGGVLYGTWLSYDRWGGGYWGQGTQVTVSS” as the sequence, how does the “polyreactivity (PSR sort gate)” value read?
Answer: low polyreactivity

Question: For “QVQLVESGGGLVQAGGSLRISCAASGRTFGPYAMGWYIQAPGKEREFVAAISYSGGSTYYADSVKGRFTISRDNAKNTVYLQMNSLKPEDTAVYYCAVDIDSNSGTRDYWGQGTQVTVSS”, which “polyreactivity (PSR sort gate)” value is on record?
Answer: low polyreactivity

Question: For “QVQLVESGGGLVQAGGSLRLSCAASGLTFWRYTMGWYRPAPGKERELVAVITYRGGSTYYADSVKGRFTISRDNAKNTVYLQMNSLKPEDTAVYYCDAGRRTYGLTYDYWGQGTQVTVSS”, which “polyreactivity (PSR sort gate)” value is on record?
Answer: high polyreactivity

Question: With “QVQLVESGGGLVQAGGSLRLRCAASGRIFLPYAMGWYRQAPGKERELVAGISSRGSTKYADSVKGRFTISRDNAKNTVYLQMNTLKPEETAVYYCNKVKKSDKFNNFSNDYWGQGTQVTVSS” as the sequence, how does the “polyreactivity (PSR sort gate)” value read?
Answer: high polyreactivity

Question: With “QVQLVESGGGLVQAGGSLRLSCAASGTFSNYAMGWYRQAPGKERELVAGISKRGGSTYYADSVKGRFTISRDNAKNTVYLQMNSLKPEDTAVYYCRVYAYDYWGQGTQVTVSS” as the sequence, how does the “polyreactivity (PSR sort gate)” value read?
Answer: low polyreactivity

Question: For “QVQLVESGGGLVQAGGSLRLSCAASGRTFYSYAMGWYRQAPGKERELVATITNGDTTNYADSVKGRFTISRDNAKNTVYLQMNSLKPEDTAVYYCAKDISPGYDEYDYWGQGTQVTVSS”, which “polyreactivity (PSR sort gate)” value is on record?
Answer: low polyreactivity

Question: For “QVQLVESGGGLVQAGGSLRLSCAASGLTLAPYAMGWYRQAPGKERELVAVITRRGGRTYYADSVKGRFTISRDNAKNTVYLQMNSLKPEDTAVYYCNADTANYADGLDYWGQGTQVTVSS”, which “polyreactivity (PSR sort gate)” value is on record?
Answer: low polyreactivity

Question: For “QVHLVESGGGLVQAGGSLRLSCAASGRTFETYAMGWYRQSPGKERELVAAITTSGGTTYYADSVKGRFTISRDNAKNTVYLQMKSLKPEDTAVYYCAADPWIEDTYGSKAYYYWGQGTQVTVSS”, which “polyreactivity (PSR sort gate)” value is on record?
Answer: low polyreactivity

Question: For “QVQLVESGGGLVQAGGSLRLSCAASGLIFSLYAMGWSRQAPGKDRELVADITVDGDGSTYYADSVKGRFTISRDIAKNTVYLQMNSLIPEDTAVYYCAADAYFGWYYYWGQGTQVTVSS”, which “polyreactivity (PSR sort gate)” value is on record?
Answer: high polyreactivity

Question: Which “polyreactivity (PSR sort gate)” value does the source give for “QVQLVESGGGLVQAGGSLRLSCAASGSTFDVYAMGWYRQAPGKERELVAAIDVRDSTTYYADSVKGRFTISRDNAKNTVYLQMNSLKPEDTAVYYCAAEADIEYGDDDYWGQGTQVTVSS” here?
Answer: high polyreactivity

Question: Which “polyreactivity (PSR sort gate)” value does the source give for “QVQLVESGGGLVQAGGSLRLSCAASGRTFAYYTMGWYRQAPGKERELVAAITSSGGSTYYADSVKGRFTISRDNAKNTVYLQMNSLKPEDTAVYYCNAYGLRWASRLGYDYWGQGTQVTVSS” here?
Answer: high polyreactivity

Question: With “QVQLVESGGGIVQAGGSLRLSCAASGRIFWYNAMGWYRQAPGKERELVAGITRSGGRTYYADCVKGRFTISRDNAKNTVYLQMNSLKPEYTAVYYCAAAPYARRDYEYWGQGTQVTVSS” as the sequence, how does the “polyreactivity (PSR sort gate)” value read?
Answer: high polyreactivity

Question: For “QVQLVESGGGLVQAGGSLRLSCAASGNTFFPYTMGWYRQAPGKERELVAAITWSGVSTYYADSVKGRFTISRDNAKNTVYLQMNSLKPEDTAVYYCAARGPVYVSYPRQYGYWGQGTQVTVSS”, which “polyreactivity (PSR sort gate)” value is on record?
Answer: high polyreactivity

Question: With “QVQLVESGGSLVQAGGSLRLSCAASGSTLYYNAMGWYRQAPGKERELVAAISWSGGSTYYADSVKGRFTISRDNAKNTVYLQMNSLKPEDTSVYYCAADQSTVLDVGSWGQGTQVTVSS” as the sequence, how does the “polyreactivity (PSR sort gate)” value read?
Answer: low polyreactivity

Question: For “QVQLVESVGGLVQAGGSLRLSCAASGSTFYIYAMRWYRQAPGKERELVARISGSGGSTYYADSVKGRFTISRDNAKNTVYLQMNSLKPEDTAVYYCAADAIYKYYQYYAFPYYRYDYWGLGTQVTVSS”, which “polyreactivity (PSR sort gate)” value is on record?
Answer: low polyreactivity

Question: For “QVQLVESGGGLVQAGGSLRLSCAASGRISRCYVMGWYRQEPGKERELVAAITWNSGSTYYADSVKGRFTISRDNAKNTVYLQMNSLKPEDTAVYYCAAVLYSRYQQYDFWGQGTQVTVSS”, which “polyreactivity (PSR sort gate)” value is on record?
Answer: high polyreactivity
